Data on four sequences can be found in US10500249B2, “Compositions and methods for preventing or treating diseases, conditions, or processes characterized by aberrant fibroblast proliferation and extracellular matrix deposition” (MOERAE MATRIX, INC., priority 2014, dated 2019).

What all share (experiment): Kinase Profiling Assay
Common to all, as to format: biochemical
Conditions in all cases: 100 μM

In one test the target is T1, DRAK1 (h) (Homo sapiens, UniProt Q9UEE5).
T1 construct: purchased Millipore
T1 sequence (Q9UEE5 1-414): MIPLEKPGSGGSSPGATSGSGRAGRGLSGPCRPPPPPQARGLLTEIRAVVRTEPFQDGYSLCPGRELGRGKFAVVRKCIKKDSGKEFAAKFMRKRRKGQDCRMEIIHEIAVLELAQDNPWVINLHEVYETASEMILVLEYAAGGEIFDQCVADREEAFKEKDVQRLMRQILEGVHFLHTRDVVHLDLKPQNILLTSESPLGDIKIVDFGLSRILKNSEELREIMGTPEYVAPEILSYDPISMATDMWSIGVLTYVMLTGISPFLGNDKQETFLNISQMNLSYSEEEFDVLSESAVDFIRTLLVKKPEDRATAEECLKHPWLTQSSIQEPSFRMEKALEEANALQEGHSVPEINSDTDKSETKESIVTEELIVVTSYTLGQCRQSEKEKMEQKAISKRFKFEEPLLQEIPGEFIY
The essentials:
(§1)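 Scintillation counting quantifies radiolabeled, positively charged substrate retained on a negatively charged filter after kinase reaction with labeled ATP; inhibitor peptide present.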

In a further test the target is T2, EphB1 (h) (Homo sapiens, UniProt P54762).
T2 sequence (P54762 18-984): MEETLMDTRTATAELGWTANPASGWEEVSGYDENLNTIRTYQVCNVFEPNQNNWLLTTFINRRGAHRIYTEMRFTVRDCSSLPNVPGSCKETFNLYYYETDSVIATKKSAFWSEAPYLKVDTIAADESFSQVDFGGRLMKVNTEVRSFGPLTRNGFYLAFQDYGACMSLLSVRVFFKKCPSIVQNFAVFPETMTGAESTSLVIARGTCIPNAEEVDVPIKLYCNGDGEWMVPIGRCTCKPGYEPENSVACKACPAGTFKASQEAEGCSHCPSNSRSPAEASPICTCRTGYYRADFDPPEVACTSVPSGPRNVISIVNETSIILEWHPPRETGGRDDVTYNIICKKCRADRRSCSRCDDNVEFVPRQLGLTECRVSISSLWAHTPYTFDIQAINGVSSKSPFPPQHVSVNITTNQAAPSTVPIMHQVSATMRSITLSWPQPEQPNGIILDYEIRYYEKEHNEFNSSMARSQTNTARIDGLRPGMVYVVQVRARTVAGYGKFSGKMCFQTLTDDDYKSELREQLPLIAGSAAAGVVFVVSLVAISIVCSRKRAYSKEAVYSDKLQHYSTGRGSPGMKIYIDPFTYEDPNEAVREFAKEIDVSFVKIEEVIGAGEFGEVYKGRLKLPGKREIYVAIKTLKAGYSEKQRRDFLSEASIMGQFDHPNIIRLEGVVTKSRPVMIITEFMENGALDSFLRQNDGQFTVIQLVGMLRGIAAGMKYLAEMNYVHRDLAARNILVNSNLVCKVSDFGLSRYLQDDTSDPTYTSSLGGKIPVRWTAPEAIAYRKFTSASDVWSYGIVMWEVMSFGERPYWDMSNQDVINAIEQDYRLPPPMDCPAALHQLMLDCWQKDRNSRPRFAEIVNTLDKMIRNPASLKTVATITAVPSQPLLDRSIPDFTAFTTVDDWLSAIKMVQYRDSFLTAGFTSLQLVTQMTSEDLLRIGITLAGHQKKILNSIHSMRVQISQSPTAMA
Summed up:
as §1

The target of another test is T3, GRK7 (h) (Homo sapiens, UniProt Q8WTQ7).
T3 construct: purchased Millipore
T3 sequence (Q8WTQ7 1-553): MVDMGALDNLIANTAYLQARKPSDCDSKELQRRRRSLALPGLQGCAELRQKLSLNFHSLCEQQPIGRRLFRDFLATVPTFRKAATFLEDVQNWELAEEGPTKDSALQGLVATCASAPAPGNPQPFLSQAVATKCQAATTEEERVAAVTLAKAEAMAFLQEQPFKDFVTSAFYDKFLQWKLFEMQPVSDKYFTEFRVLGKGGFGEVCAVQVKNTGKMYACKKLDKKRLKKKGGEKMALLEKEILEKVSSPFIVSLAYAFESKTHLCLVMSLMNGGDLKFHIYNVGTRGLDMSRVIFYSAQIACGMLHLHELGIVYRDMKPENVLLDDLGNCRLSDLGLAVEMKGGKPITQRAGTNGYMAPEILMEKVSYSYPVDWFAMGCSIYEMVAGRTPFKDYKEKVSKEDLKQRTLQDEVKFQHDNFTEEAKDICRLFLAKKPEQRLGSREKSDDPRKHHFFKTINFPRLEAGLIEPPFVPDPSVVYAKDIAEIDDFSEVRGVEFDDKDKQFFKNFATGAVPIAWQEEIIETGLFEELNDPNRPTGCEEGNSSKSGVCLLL
Summed up:
as §1

Another test deals with MARK1 (h) (Homo sapiens, UniProt Q9P0L2). The essentials:
as §1

A further test concerns the target MELK (h) (Homo sapiens, UniProt Q14680). The essentials: as §1
A further test has as its target T4, NLK (h) (Homo sapiens, UniProt Q9UBE8).
T4 construct: purchased Millipore
T4 sequence (Q9UBE8 1-527): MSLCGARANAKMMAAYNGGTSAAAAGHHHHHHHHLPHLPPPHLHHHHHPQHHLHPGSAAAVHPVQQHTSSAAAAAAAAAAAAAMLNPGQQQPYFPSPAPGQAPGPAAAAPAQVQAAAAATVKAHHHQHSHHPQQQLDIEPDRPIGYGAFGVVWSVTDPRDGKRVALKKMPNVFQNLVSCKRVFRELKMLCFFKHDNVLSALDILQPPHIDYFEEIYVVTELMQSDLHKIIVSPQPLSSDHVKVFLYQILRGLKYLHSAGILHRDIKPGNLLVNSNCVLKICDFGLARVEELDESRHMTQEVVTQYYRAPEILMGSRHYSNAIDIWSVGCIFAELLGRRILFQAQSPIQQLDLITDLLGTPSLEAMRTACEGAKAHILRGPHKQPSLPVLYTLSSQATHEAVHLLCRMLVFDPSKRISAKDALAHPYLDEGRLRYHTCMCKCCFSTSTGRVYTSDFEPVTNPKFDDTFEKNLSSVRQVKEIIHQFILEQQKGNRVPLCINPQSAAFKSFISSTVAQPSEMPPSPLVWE
The essentials: as §1

The target in a further test is T5, cKit(D816V) (h) (Homo sapiens, UniProt P10721, D816V).
T5 construct: purchased Millipore
Summed up: as §1

Chain of MARK1 (h) (Q9P0L2 whole entry): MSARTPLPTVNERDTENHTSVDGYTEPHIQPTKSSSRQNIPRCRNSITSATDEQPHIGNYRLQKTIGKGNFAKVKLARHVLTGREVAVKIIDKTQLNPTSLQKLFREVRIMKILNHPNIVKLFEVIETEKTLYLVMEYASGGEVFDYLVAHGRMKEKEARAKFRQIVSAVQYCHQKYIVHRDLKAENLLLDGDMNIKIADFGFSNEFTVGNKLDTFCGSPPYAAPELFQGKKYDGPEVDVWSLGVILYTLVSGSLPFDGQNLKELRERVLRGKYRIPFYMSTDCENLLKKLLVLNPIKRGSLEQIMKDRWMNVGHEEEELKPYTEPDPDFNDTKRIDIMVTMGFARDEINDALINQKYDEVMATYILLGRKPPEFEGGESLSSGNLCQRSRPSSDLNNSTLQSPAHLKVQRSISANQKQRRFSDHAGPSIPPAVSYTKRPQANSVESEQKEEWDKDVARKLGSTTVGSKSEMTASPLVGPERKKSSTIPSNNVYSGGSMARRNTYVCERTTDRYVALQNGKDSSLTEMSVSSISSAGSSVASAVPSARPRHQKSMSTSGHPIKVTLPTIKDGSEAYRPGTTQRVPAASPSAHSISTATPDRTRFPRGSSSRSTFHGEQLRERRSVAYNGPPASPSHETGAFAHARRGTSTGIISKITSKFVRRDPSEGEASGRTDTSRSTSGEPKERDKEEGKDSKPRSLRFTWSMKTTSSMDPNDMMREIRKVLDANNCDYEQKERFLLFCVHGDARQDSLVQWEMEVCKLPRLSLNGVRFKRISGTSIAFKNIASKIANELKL
Chain of MELK (h) (Q14680 whole entry): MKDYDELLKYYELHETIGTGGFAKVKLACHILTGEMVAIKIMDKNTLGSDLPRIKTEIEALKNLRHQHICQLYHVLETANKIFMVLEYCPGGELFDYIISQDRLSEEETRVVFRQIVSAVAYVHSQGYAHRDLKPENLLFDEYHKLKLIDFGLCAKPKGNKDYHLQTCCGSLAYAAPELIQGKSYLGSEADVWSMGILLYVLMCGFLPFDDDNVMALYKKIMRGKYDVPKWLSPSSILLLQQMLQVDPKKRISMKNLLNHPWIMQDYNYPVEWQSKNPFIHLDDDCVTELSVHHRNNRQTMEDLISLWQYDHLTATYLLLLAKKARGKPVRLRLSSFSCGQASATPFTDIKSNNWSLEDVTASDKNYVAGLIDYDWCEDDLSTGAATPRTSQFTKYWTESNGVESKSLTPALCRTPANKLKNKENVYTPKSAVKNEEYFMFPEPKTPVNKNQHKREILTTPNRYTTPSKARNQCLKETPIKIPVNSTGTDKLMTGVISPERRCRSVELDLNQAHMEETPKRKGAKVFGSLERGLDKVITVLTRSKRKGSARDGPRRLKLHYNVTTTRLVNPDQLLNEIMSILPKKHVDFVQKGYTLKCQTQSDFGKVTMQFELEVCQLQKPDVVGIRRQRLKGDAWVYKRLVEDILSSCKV

With FAKLAARLYRKALARQLGVAA [MMI-0300], the “% activity” value with DRAK1 (h) came to 14%; with EphB1 (h), 44%; with GRK7 (h), 122%; in the test with MARK1 (h), 132%; with MELK (h), 16%; with NLK (h), 87%. Also, the “% activity” value with cKit(D816V) (h) worked out at 60%.

On to “HRRIKAWLKKIKALARQLGVAA (Mammalian) [MMI-0500]”, for which the “% activity” value in the test with DRAK1 (h) was 8%; with EphB1 (h) it was 37%; in the test with GRK7 (h), 93%; with MARK1 (h), 110%; in the test with MELK (h), 0%; with NLK (h), 19%. Moreover, the “% activity” value in the test with cKit(D816V) (h) was 30%.

On to “YARAAARQARAKALNRQLGVA (Mammalian) [MMI-0200]”, for which the “% activity” value with DRAK1 (h) is listed as 34%; with EphB1 (h), 95%; with GRK7 (h), 124%; with MELK (h) it was 59%; with cKit(D816V) (h) it was 118%.

Regarding KAFAKLAARLYRKALARQLGVAA [MMI-0400], the “% activity” value with DRAK1 (h) is 14%; with EphB1 (h), 58%; with GRK7 (h), 100%; in the test with MARK1 (h), 120%; with MELK (h) it was 17%; with NLK (h), 90%. Further, the “% activity” value with cKit(D816V) (h) turned out to be 35%.
